This passage reports Km results from patent publication US10696642B2, “TEAD transcription factor autopalmitoylation inhibitors” (The General Hospital Corporation, priority 2015, dated 2020).

Substrate in this data set: CCCCCCCCCCCCCCCC(=O)SCCNC(=O)CCNC(=O)[C@H](O)C(C)(C)COP(=O)(O)OP(=O)(O)OC[C@H]1O[C@@H](n2cnc3c(N)ncnc32)[C@H](O)[C@@H]1OP(=O)(O)O
Kind of data set: TEAD2 YBD autopalmitoylation kinetics, palmitoyl-CoA dose-dependency. Particulars: other: recombinant TEAD2 YBD, alkyne palmitoyl-CoA, 3 min (FIG. 2J); pH 6.4. It is filed as biochemical, human. As for the experimental part: Intact mass spectrometry analysis of the recombinant TEAD2-YBD was carried out. The peak corresponding to unmodified TEAD2 at 26497 Dalton. A small side peak was also observed at 26736 Dalton (FIG. 2E), consistent with a palmitate modification to the protein. […] Moreover, autopalmitoylation of TEAD2 YBD was confirmed by acyl-biotin exchange (ABE) assay, which converts S-palmitoylation to stable biotinylation for detection (FIG. 2G). With 1 μM of palmitoyl-CoA at neutral pH, TEAD2 YBD was autopalmitoylated within 2 min, and the palmitoylation levels reached saturation after 10 min (FIG. 2H). To determine dose-dependency of palmitoyl-CoA, recombinant TEAD2 YBD was incubated with various concentrations of alkyne palmitoyl-CoA for 3 min, and the reaction rate was determined by quantifying the intensities of streptavidin blots (FIG. 2I). […] The physiological palmitoyl-CoA concentrations range from 100 nM to 10 μM in cells.
Recombinant GST-TEAD2 or His6TEAD2 (500 ng) protein was incubated with the indicated concentrations of alkyne palmitoyl-CoA (Cayman Chemical) for 2 h or the indicated time in 50 mM MES, pH 6.4. […] Samples were analyzed by SDS-PAGE and streptavidin HRP. Bands intensity obtained from streptavidin blot were quantified using Image J (NIH) and the rate of palmitoylation in arbitrary unit was plotted against the concentration of palmitoyl-CoA. […]

B1: TEAD2 YBD (Homo sapiens) (protein)
chain: AWQARGLGTARLQLVEFSAFVEPPDAVDSYQRHLFVHISQHCPSPGAPPLESVDVRQIYDKFPEKKGGLRELYDRGPPHAFFLVKFWADLNWGPSGEEAGAGGSISSGGFYGVSSQYESLEHMTLTCSSKVCSFGKQVVEKVETERAQLEDGRFVYRLLRSPMCEYLVNFLHKLRQLPERYMMNSVLENFTILQVVTNRDTQELLLCTAYVFEVSTSERGAQHHIYRLVRD
notes: The cDNA encoding human TEAD2 (residues 217-447, TEAD2^217-447) was cloned into a pET29 vector; made in house; host or cells: E. coli BL21(DE3)-T1R
For the protein B1, the Km came out at 0.8 µM.

As usually defined, the Km is the concentration of substrate that gives half-maximal velocity.
